Results reported in patent EP4786494A1 (Nanjing Leads Biolabs Co., Ltd., dated 2026).
Substitutions are numbered along the chain they refer to.

T1: human FGFR2-his protein (huFGFR2-his) (human)
T1 construct: Extracellular region of human FGFR2 (NP_001138385.1) with a 6xHis tag; also called human FGFR2 extracellular protein
T1 chain: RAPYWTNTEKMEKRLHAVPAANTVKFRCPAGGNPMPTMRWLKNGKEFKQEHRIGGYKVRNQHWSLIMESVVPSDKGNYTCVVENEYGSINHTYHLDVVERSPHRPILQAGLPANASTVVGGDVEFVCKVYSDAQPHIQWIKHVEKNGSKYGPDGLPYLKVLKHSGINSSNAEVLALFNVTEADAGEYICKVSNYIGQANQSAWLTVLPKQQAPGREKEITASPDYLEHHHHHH

T2: human FGFR1 protein (ACRO Biosystems, Cat. No. FG1-H5223) (human, UniProt P11362-14 22-285)
T2 construct: Bought recombinant protein; construct not described
T2 sequence (looked up): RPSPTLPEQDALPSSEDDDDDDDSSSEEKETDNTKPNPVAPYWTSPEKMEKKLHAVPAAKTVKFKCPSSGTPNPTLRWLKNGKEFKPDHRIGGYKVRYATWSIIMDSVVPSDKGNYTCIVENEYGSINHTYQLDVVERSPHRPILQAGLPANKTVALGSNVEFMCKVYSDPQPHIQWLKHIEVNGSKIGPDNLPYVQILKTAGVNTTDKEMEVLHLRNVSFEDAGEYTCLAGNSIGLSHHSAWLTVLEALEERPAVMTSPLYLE

T3: human FGFR3 protein (Sino Biological, Cat. No. 16486-H08H) (human, UniProt P22607-2 23-377)
T3 construct: Bought recombinant protein; construct not described
T3 sequence (looked up): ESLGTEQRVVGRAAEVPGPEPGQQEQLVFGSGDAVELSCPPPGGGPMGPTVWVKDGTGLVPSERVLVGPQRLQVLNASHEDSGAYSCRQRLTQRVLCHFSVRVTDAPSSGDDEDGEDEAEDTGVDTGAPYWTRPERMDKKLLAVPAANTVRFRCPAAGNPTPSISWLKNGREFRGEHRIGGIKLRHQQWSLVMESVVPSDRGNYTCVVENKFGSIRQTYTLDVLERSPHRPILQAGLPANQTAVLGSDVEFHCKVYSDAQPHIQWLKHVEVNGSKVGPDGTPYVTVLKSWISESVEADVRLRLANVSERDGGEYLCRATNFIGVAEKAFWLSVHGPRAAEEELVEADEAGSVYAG

B1: mouse antibody F6B6 (antibody, V domains shown)
VH: QVQLKQSGPGLVQPSQSLSITCTVSGFSLTNYGVHWVRQSPGKGLEWLGVIWSDGSTDYDAAFISRLSISTDNSKSQVFFKMNSLQAADTAIYYCARKGDYDYDNYAMDYWGQGTSVTVSS
VL: DVVITQSPATLSVTPGDSVSLSCRASQSISNNLHWYQQKSHESPRLLIKYASQSISGIPSRFSGSGSGTDFTLSINSVETEDFGMYFCQQSNSWPLTFGAGTKLELK
notes: Antibody as produced by the hybridoma
B2: mouse antibody G11B8 (antibody, V domains shown)
VH: EVQLQQSGPELVKPGASVKIPCKASGYTFTDYNMDWVKQSHGKSLEWIGDINPKNGETFYNQKFKGKATLTVDRSSNTAYMELRSLTSEDTAVYFCAKRDLNWYFDYWGQGTTLTVSS
VL: DIQMTQSSSYLSVSLGGRVTITCKASDHINNWLAWYQQKPGNAPRLLISGATSLETGVPSRFSGSGSGKDYTLSITSLQTEDVATYYCQQYWSTPWTFGGGTKLEIK
notes: as for B1
B3: mouse antibody H3F7-a (antibody, V domains shown)
VH: B2 VH with N77S
VL: B2 VL
notes: as for B1
B4: mouse antibody F3F8 (antibody, V domains shown)
VH: QVTLKESGPGILQSSQTLSLTCSFSGFSLSTSGMGVSWIRQPSGKGLEWLAHIYWDNDKRYNPSLKSRLTISKDTSRNQVFLKITSVDTADTATYYCTRSDSSGSFDYWGQGTTLTVSS
VL: DIQMTQTTSSLSASLGDRVTISCRASQDISNYLNWYQQKPDGTVKFLIYYTSTLHSGVPSRFSGSGSGTDYSLTISNLEQEDIATYFCQQGNTLPWTFGGGTKLEIK
notes: as for B1
B5: mouse antibody D12D8 (antibody, V domains shown)
VH: QVQLQQSGAELARPGASVKLSCKASGYTFTNYGISWVKQRTGQGLEWIGEIYPRSGNTYYNEKFKGKATLTADKSSSTAYMELRSLTSEDSAVYFCARGDYSNSDYWGQGTTLTVSS
VL: B4 VL with S30T, N31D, Y32H, F46L, T53R, W96R
notes: as for B1
B6: mouse antibody E3A1 (antibody, V domains shown)
VH: B4 VH with S30T, N57D, T98A, R99G, S100C
VL: B4 VL with S22T, F46L, T51R, T53R, T69P, D70E
notes: as for B1
B7: mouse antibody A5H12 (antibody, V domains shown)
VH: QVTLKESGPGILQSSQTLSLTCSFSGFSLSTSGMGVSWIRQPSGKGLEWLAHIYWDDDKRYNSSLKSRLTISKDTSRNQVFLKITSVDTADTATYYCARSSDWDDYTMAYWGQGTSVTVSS
VL: DIVLTQSPASLAVSLGQRATISCRASESIDDFGISFMHWYQQKPGQPPKLLIYRASNLESGIPARFSGSGSRADFTLTINPVETDDVATYYCQQSNKDPPTFGAGTNLELK
notes: as for B1
B8: mouse antibody A1B2 (antibody, V domains shown)
VH: EVQLQQSGAELVRPGASVKLSCTASGFNIKDYYMHWVKQRPEQGLEWIGRIDPEDGDTEYAPKFQGKATMTADTSSNTAYLQLSSLTSEDTAVYYCTTYYYVSTYEDYWGQGTTLTVSS
VL: QIVLTQSPAIMSASLGEEITLTCSASSSVSHMHWYQQKSGTSPKLLIYSTSNLASGVPSRFSGSGSGTFYSLTISSVEAEDAADYYCHHWSSWTFGGGTKLEIK
notes: as for B1
B9: antibody F6B6 (murine chimeric anti-FGFR2 antibody) (antibody, human IgG1, kappa, V domains shown)
VH: B1 VH
VL: DVVITQSPATLSVTPGDSVSLSCRASQSISNNLHWYQQKSHESPRLLIKYASQSISGIPSRFSGSGSGTDFTLSINSVETEDFGMYFCQQSNSWPLTFGAGTKLELKR
B10: bemarituzumab (antibody, human IgG1, kappa, V domains shown)
VH: QVQLVQSGAEVKKPGSSVKVSCKASGYIFTTYNVHWVRQAPGQGLEWIGSIYPDNGDTSYNQNFKGRATITADKSTSTAYMELSSLRSEDTAVYYCARGDFAYWGQGTLVTVSS
VL: DIQMTQSPSSLSASVGDRVTITCKASQGVSNDVAWYQQKPGKAPKLLIYSASYRYTGVPSRFSGSGSGTDFTFTISSLQPEDIATYYCQQHSTTPYTFGQGTKLEIKR
B11: antibody G11B8 (murine chimeric anti-FGFR2 antibody) (antibody, human IgG1, kappa, V domains shown)
VH: B2 VH
VL: DIQMTQSSSYLSVSLGGRVTITCKASDHINNWLAWYQQKPGNAPRLLISGATSLETGVPSRFSGSGSGKDYTLSITSLQTEDVATYYCQQYWSTPWTFGGGTKLEIKR
B12: antibody H3F7-a (murine chimeric anti-FGFR2 antibody) (antibody, human IgG1, kappa, V domains shown)
VH: B2 VH with N77S
VL: B11 VL
B13: antibody F3F8 (murine chimeric anti-FGFR2 antibody) (antibody, human IgG1, kappa, V domains shown)
VH: B4 VH
VL: DIQMTQTTSSLSASLGDRVTISCRASQDISNYLNWYQQKPDGTVKFLIYYTSTLHSGVPSRFSGSGSGTDYSLTISNLEQEDIATYFCQQGNTLPWTFGGGTKLEIKR
B14: antibody E3A1 (murine chimeric anti-FGFR2 antibody) (antibody, human IgG1, kappa, V domains shown)
VH: B4 VH with S30T, N57D, T98A, R99G, S100C
VL: B13 VL with S22T, F46L, T51R, T53R, T69P, D70E
B15: antibody A5H12 (murine chimeric anti-FGFR2 antibody) (antibody, human IgG1, kappa, V domains shown)
VH: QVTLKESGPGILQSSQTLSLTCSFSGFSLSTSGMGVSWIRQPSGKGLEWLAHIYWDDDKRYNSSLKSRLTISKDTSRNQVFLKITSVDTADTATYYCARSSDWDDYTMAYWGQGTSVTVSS
VL: DIVLTQSPASLAVSLGQRATISCRASESIDDFGISFMHWYQQKPGQPPKLLIYRASNLESGIPARFSGSGSRADFTLTINPVETDDVATYYCQQSNKDPPTFGAGTNLELKR
B16: antibody D12D8 (murine chimeric anti-FGFR2 antibody) (antibody, human IgG1, kappa, V domains shown)
VH: B5 VH
VL: B13 VL with S30T, N31D, Y32H, F46L, T53R, W96R
B17: antibody A1B2 (murine chimeric anti-FGFR2 antibody) (antibody, human IgG1, kappa, V domains shown)
VH: B8 VH
VL: QIVLTQSPAIMSASLGEEITLTCSASSSVSHMHWYQQKSGTSPKLLIYSTSNLASGVPSRFSGSGSGTFYSLTISSVEAEDAADYYCHHWSSWTFGGGTKLEIKR

Target: T1, human FGFR2-his protein (huFGFR2-his)
Test: ELISA screen of hybridoma subclones on human FGFR2-his

binding result	Binder
binds	B1
binds	B2
binds	B3
binds	B4
binds	B5
binds	B6
binds	B7
binds	B8

Target: T2, human FGFR1 protein (ACRO Biosystems, …)
Test: ELISA, FGFR1 coated

binding result	Binder
no binding	B9
no binding	B10
no binding	B11
no binding	B12
no binding	B13
no binding	B14
no binding	B15
no binding	B16
no binding	B17

Target: T3, human FGFR3 protein (Sino Biological, …)
Test: ELISA, FGFR3 coated

binding result	Binder
no binding	B9
no binding	B10
no binding	B11
no binding	B12
no binding	B13
no binding	B16
no binding	B17

Target: T4, human FGFR4 protein (Sino Biological, Cat. No. 10538-H08H) (human, UniProt P22455 22-369)
T4 construct: Bought recombinant protein; construct not described
Test: ELISA, FGFR4 coated

binding result	Binder
no binding	B9
no binding	B10
no binding	B11
no binding	B12
no binding	B13
no binding	B14
no binding	B15
no binding	B16
no binding	B17
